# Reference: patent US11780907B2, “Human antibodies to influenza hemagglutinin” (Regeneron Pharmaceuticals, Inc., priority 2018, dated 2023)
# Like-named read-outs stand apart in the source and are kept apart here.
# B1: H1H14612N2: fully human anti-influenza A group 2 HA monoclonal antibody, HCVR/LCVR SEQ ID NOs: 18/26 (antibody, V domains shown)
# VH: EVQLVESGGGLVKPGGSLRLSCAASGFSFSGFSMNWVRQAPGKGLEWVSSISTSGNYMYYADSVKGRFTISRDNAKKSFSLQMNSLRAEDSAIYYCARGGGYNWNLFDYWGQGSLVTVSS
# VL: EIVLTQSPGTLSLSPGERATLSCRASQSLNSNYLAWYQQKPGQAPRLLIYGASSRATGIPDRFSGSGSGADFTLTISRLESEDFAVYYCQQYGNSPLTFGGGTKVEIK
# Assays:
# [1] = system: A/Wisconsin/67/2005 (H3N2)-overexpressing 3T3 cells; conditions: read-out: EC50 FcγRIIIA activation (ADCC-Glo reporter bioassay)
# [2] = system: A/Wisconsin/67/2005 (H3N2)-overexpressing 3T3 cells; conditions: read-out: EC50 ADCC with human donor PBMCs
molecule,measurement,setting,value
B1,EC50,[1],0.688 nM
same,EC50,[2],0.176 nM
